This is an account of results in patent US5677143.

One data set addresses Tat (wild-type) (HIV-1) (UniProt P04608). In words: EMSA. As to conditions: printed as Ka of 6.4x10^-10 M; Scatchard, one tat per TAR RNA. (In general: Mobility shift assays separate free from complexed probe on a gel.)
The target in data set [1] is TRP-185 (cellular TAR RNA binding protein, about 185 kD) (Homo sapiens) (UniProt Q13395). In words: EMSA.
Chain of TRP-185 (cellular TAR RNA binding protein, about 185 kD) (Homo sapiens) (Q13395 whole entry): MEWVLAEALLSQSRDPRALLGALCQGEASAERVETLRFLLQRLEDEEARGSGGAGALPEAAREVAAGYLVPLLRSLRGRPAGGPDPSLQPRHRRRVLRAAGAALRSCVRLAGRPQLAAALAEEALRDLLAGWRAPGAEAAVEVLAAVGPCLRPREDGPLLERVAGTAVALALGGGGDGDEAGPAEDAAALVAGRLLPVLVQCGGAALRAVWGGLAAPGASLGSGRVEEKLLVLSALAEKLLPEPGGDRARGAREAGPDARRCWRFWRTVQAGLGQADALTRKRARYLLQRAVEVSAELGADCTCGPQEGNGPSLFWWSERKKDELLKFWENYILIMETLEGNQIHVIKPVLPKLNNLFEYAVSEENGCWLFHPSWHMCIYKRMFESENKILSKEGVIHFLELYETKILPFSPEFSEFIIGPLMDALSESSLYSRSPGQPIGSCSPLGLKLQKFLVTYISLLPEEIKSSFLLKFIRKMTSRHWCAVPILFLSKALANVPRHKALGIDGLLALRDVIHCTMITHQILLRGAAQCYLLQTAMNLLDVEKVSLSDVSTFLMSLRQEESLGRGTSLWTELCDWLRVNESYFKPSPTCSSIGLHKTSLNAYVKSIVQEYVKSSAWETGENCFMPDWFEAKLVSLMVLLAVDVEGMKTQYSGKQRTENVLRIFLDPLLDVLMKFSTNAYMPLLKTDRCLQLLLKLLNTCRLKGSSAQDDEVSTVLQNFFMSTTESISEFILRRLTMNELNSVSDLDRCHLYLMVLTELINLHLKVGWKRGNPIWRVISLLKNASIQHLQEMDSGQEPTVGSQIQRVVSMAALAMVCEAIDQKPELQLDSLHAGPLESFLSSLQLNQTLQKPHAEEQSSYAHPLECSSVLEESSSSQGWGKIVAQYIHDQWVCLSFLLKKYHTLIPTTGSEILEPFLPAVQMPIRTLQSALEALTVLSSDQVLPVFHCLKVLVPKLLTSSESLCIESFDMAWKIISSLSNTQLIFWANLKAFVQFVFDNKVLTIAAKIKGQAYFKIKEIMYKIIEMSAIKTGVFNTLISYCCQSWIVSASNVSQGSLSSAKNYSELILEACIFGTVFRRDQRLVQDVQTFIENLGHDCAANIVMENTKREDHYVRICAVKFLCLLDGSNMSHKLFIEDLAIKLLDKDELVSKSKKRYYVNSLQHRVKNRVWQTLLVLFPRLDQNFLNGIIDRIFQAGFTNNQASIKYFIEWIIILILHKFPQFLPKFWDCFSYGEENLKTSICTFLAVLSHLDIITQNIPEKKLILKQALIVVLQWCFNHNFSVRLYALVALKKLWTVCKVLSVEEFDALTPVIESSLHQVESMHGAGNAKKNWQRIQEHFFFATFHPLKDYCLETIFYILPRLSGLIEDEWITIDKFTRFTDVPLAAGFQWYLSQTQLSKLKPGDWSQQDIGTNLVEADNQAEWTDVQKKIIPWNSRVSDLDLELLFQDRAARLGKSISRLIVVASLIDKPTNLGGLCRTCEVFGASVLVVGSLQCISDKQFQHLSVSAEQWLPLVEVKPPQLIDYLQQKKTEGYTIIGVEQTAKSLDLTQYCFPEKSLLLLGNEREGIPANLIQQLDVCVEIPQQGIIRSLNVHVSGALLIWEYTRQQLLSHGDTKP

For the substance HIV TAR RNA wild-type (+1/+80), the Kd in the data set with Tat (wild-type) (HIV-1) was determined as 0.64 nM; in data set [1] (Scatchard, cofactor fraction required with sucrose gradient TRP-185, room temperature, 50 mM KCl), 0.315 nM. In data set [1] (data not shown), nonspecific RNA displayed a Kd of 21100 nM.

In general, Kd refers to a measure of binding affinity in units of concentration. Read a low Kd as tighter binding.
